Biological target: Fas receptor on human cells (Jurkat, HT-29) (human) (UniProt P25445)
Experiment: cell-based or functional assay

Fas receptor on human cells (Jurkat, HT-29) (human), sequence (P25445 26-335): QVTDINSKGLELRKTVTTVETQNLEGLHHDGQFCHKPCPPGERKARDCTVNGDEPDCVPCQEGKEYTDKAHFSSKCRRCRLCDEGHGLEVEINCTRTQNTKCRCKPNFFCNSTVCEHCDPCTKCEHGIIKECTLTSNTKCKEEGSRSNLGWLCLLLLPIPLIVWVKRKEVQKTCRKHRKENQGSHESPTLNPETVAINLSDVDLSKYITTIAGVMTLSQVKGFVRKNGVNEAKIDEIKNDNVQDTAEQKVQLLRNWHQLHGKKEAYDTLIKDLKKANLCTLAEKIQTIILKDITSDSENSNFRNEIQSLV

% Cells undergoing apoptosis (Jurkat, annexin/propidium iodide FACS); FasL (20 ng): 8.87%
Substance: sFas ligand (Alexis Corporation, FLAG epitope tag at its N-terminus) (from UniProt P48023 103-281)
decrease in Jurkat cell viability (ALOMAR blue): 50%

From patent US20040013664A1
